{
  "source": "IntAct's records for PubMed 22483105",
  "data": [
    {"biological_target": "ubc4_yeast UBC4 (UniProt P15731)", "sequence (P15731 whole entry)": "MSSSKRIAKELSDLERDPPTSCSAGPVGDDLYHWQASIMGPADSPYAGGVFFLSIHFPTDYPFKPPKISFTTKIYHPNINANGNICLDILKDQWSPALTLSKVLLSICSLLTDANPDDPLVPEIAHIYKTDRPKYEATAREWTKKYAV", "values": [
      {"substance": "E3 ubiquitin-protein ligase RSP5 (Saccharomyces cerevisiae), P39940 W597M", "effect of a mutation on the interaction": "disrupting interaction strength"},
      {"substance": "E3 ubiquitin-protein ligase RSP5 (Saccharomyces cerevisiae), P39940 D614M", "effect of a mutation on the interaction": "decreasing interaction strength"},
      {"substance": "E3 ubiquitin-protein ligase RSP5 (Saccharomyces cerevisiae), P39940 L607M", "effect of a mutation on the interaction": "decreasing interaction strength"},
      {"substance": "E3 ubiquitin-protein ligase RSP5 (Saccharomyces cerevisiae), P39940 Y647M", "effect of a mutation on the interaction": "decreasing interaction strength"},
      {"substance": "E3 ubiquitin-protein ligase RSP5 (Saccharomyces cerevisiae), P39940 S594M", "effect of a mutation on the interaction": "decreasing interaction strength"}
    ]}
  ]
}
